This series deals with the molecule itself. Briefly: negative stain EM.

B1: Drosophila Arc homologue dArc1 (natural protein, UniProt Q7K1U0 1-254, looked up)
chain: MAQLTQMTNEQLRELIEAVRAAAVGAAGSAAAAGGADASRGKGNFSACTHSFGGTRDHDVVEEFIGNIETYKDVEGISDENALKGISLLFYGMASTWWQGVRKEATTWKEAIALIREHFSPTKPAYQIYMEFFQNKQDDHDPIDTFVIQKRALLAQLPSGRHDEETELDLLFGLLNIKYRKHISRHSVHTFKDLLEQGRIIEHNNQEDEEQLATAKNTRGSKRTTRCTYCSFRGHTFDNCRKRQKDRQEEQHEE
Regarding B1, the binding result is listed as “binds”.
